Test results as given in article PMC5740215, “Functional characterization of a novel somatic oncogenic mutation of PIK3CB” (Signal Transduction and Targeted Therapy, 2017).

Substrate: Nc1ncnc2c1ncn2[C@@H]1O[C@H](COP(=O)(O)OP(=O)(O)OP(=O)(O)O)[C@@H](O)[C@H]1O
Assay: Km [ATP] by ADP-Glo lipid kinase assay with PIP2:PS substrate
Assay type: biochemical, Homo sapiens
Conditions: MgCl2

B1: p110β (Homo sapiens) (protein)
chain: MCFSFIMPPAMADILDIWAVDSQIASDGSIPVDFLLPTGIYIQLEVPREATISYIKQMLWKQVHNYPMFNLLMDIDSYMFACVNQTAVYEELEDETRRLCDVRPFLPVLKLVTRSCDPGEKLDSKIGVLIGKGLHEFDSLKDPEVNEFRRKMRKFSEEKILSLVGLSWMDWLKQTYPPEHEPSIPENLEDKLYGGKLIVAVHFENCQDVFSFQVSPNMNPIKVNELAIQKRLTIHGKEDEVSPYDYVLQVSGRVEYVFGDHPLIQFQYIRNCVMNRALPHFILVECCKIKKMYEQEMIAIEAAINRNSSNLPLPLPPKKTRIISHVWENNNPFQIVLVKGNKLNTEETVKVHVRAGLFHGTELLCKTIVSSEVSGKNDHIWNEPLEFDINICDLPRMARLCFAVYAVLDKVKTKKSTKTINPSKYQTIRKAGKVHYPVAWVNTMVFDFKGQLRTGDIILHSWSSFPDELEEMLNPMGTVQTNPYTENATALHVKFPENKKQPYYYPPFDKIIEKAAEIASSDSANVSSRGGKKFLPVLKEILDRDPLSQLCENEMDLIWTLRQDCREIFPQSLPKLLLSIKWNKLEDVAQLQALLQIWPKLPPREALELLDFNYPDQYVREYAVGCLRQMSDEELSQYLLQLVQVLKYEPFLDCALSRFLLERALGNRRIGQFLFWHLRSEVHIPAVSVQFGVILEAYCRGSVGHMKVLSKQVEALNKLKTLNSLIKLNAVKLNRAKGKEAMHTCLKQSAYREALSDLQSPLNPCVILSELYVEKCKYMDSKMKPLWLVYNNKVFGEDSVGVIFKNGDDLRQDMLTLQMLRLMDLLWKEAGLDLRMLPYGCLATGDRSGLIEVVSTSETIADIQLNSSNVAAAAAFNKDALLNWLKEYNSGDDLDRAIEEFTLSCAGYCVASYVLGIGDRHSDNIMVKKTGQLFHIDFGHILGNFKSKFGIKRERVPFILTYDFIHVIQQGKTGNTEKFGRFRQCCEDAYLILRRHGNLFITLFALMLTAGLPELTSVKDIQYLKDSLALGKSEEEALKQFKQKFDEALRESWTTKVNWMAHTVRKDYRS
notes: GST-His6-p110β+myc-p85α; with p85α (PIK3R1)
Km: 507.5 ± 66.3 µM | Vmax: 1.13 µmol/min/mg

B2: p110β^E1051K (Homo sapiens; E1051K) (protein)
chain: MCFSFIMPPAMADILDIWAVDSQIASDGSIPVDFLLPTGIYIQLEVPREATISYIKQMLWKQVHNYPMFNLLMDIDSYMFACVNQTAVYEELEDETRRLCDVRPFLPVLKLVTRSCDPGEKLDSKIGVLIGKGLHEFDSLKDPEVNEFRRKMRKFSEEKILSLVGLSWMDWLKQTYPPEHEPSIPENLEDKLYGGKLIVAVHFENCQDVFSFQVSPNMNPIKVNELAIQKRLTIHGKEDEVSPYDYVLQVSGRVEYVFGDHPLIQFQYIRNCVMNRALPHFILVECCKIKKMYEQEMIAIEAAINRNSSNLPLPLPPKKTRIISHVWENNNPFQIVLVKGNKLNTEETVKVHVRAGLFHGTELLCKTIVSSEVSGKNDHIWNEPLEFDINICDLPRMARLCFAVYAVLDKVKTKKSTKTINPSKYQTIRKAGKVHYPVAWVNTMVFDFKGQLRTGDIILHSWSSFPDELEEMLNPMGTVQTNPYTENATALHVKFPENKKQPYYYPPFDKIIEKAAEIASSDSANVSSRGGKKFLPVLKEILDRDPLSQLCENEMDLIWTLRQDCREIFPQSLPKLLLSIKWNKLEDVAQLQALLQIWPKLPPREALELLDFNYPDQYVREYAVGCLRQMSDEELSQYLLQLVQVLKYEPFLDCALSRFLLERALGNRRIGQFLFWHLRSEVHIPAVSVQFGVILEAYCRGSVGHMKVLSKQVEALNKLKTLNSLIKLNAVKLNRAKGKEAMHTCLKQSAYREALSDLQSPLNPCVILSELYVEKCKYMDSKMKPLWLVYNNKVFGEDSVGVIFKNGDDLRQDMLTLQMLRLMDLLWKEAGLDLRMLPYGCLATGDRSGLIEVVSTSETIADIQLNSSNVAAAAAFNKDALLNWLKEYNSGDDLDRAIEEFTLSCAGYCVASYVLGIGDRHSDNIMVKKTGQLFHIDFGHILGNFKSKFGIKRERVPFILTYDFIHVIQQGKTGNTEKFGRFRQCCEDAYLILRRHGNLFITLFALMLTAGLPELTSVKDIQYLKDSLALGKSEEEALKQFKQKFDEALRKSWTTKVNWMAHTVRKDYRS
notes: as for B1
Km: 314.3 ± 36.8 µM | Vmax: 1.4 µmol/min/mg
